Experimental data taken from the supplement of paper PMC10724198.
± gives the standard deviation of the averaged measurements.

How the values were obtained:
[1] = test system: Saccharomyces cerevisiae; assay: protein stability index of tFT-peptide fusion (C-terminal peptide) (PSI (0-1 scale)); higher = more stable (slower turnover)
Protocol: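 MPS profiling in S. cerevisiae of the tFT-X12 degron library: putative degron peptides plus stable controls, 12 aa, fused to the C-terminus of a sfGFP-mCherry timer. Cells are FACS-sorted into 8 mCherry/sfGFP bins and deep-sequenced. PSI runs from 0 (unstable) to 1 (stable). Backgrounds are wild type, das1Δ and doa10Δ at 30 °C, and wild type, das1Δ, cdc34-1 and cdc53-1 at 37 °C; 2-3 technical replicates each.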

[2] = test system: Saccharomyces cerevisiae; assay: as above; details: genetic background: wild type; temperature: 30 C
[3] = genetic background: cdc34-1, temperature: 37 C
[4] = genetic background: cdc53-1, temperature: 37 C
[5] = genetic background: das1 deletion, temperature: 30 C
[6] = genetic background: das1 deletion, temperature: 37 C
[7] = genetic background: doa10 deletion, temperature: 30 C
[8] = genetic background: wild type, temperature: 30 C
[9] = genetic background: wild type, temperature: 37 C
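Also: PSI is a weighted mean of sequencing reads over stability bins, variants kept only with over 10 reads, mCherry proximal and sfGFP distal, peptide attached via GGGS linker.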

Row | Sequence | protein stability index [1, 3] | protein stability index [1, 4] | protein stability index [1, 5] | protein stability index [1, 6] | protein stability index [1, 7] | protein stability index [1, 8] | protein stability index [1, 9] | protein stability index [2]
1 | LLVRYYLFYVLV | 0.357 ± 0.018 | 0.442 ± 0.02 | 0.316 ± 0.048 | 0.477 ± 0.014 | 0.255 ± 0.0062 | 0.243 ± 0.024 | 0.391 ± 0.0082 | 0.351 ± 0.013
2 | LMLISFLFLSLL | 0.487 ± 0.053 | 0.461 ± 0.021 | 0.448 ± 0.023 | 0.529 ± 0.031 | 0.568 ± 0.031 | 0.397 ± 0.023 | 0.48698 ± 5.5e-05 | 0.466 ± 0.056
3 | LPALPFPIPTFA | 0.0567 ± 0.00074 | 0.0586 ± 0.0097 | 0.186 ± 0.027 | 0.201 ± 0.005 | 0.134 ± 0.0084 | 0.173 ± 0.031 | 0.179 ± 0.01 | 0.243 ± 0.053
4 | LPLSPPPLPSSR | 0.6697 ± 0.0028 | 0.72639 ± 0.00044 | 0.634 ± 0.019 | 0.704 ± 0.014 | 0.639 ± 0.022 | 0.663 ± 0.032 | 0.675 ± 0.018 | 0.432 ± 0.032
5 | LPSLPPPPPPPP | 0.675 ± 0.071 | 0.717 ± 0.018 | 0.673 ± 0.044 | 0.732 ± 0.024 | 0.654 ± 0.025 | 0.647 ± 0.016 | 0.687 ± 0.0092 | 0.498 ± 0.039
6 | LPVSLWLVCSFF | 0.524 ± 0.009 | 0.543 ± 0.02 | 0.432 ± 0.023 | 0.5682 ± 0.00058 | 0.345 ± 0.023 | 0.358 ± 0.03 | 0.5283 ± 0.0021 | 0.324 ± 0.0038
7 | LQLGFCFVAQFI | 0.6346 ± 0.0062 | 0.675 ± 0.02 | 0.491 ± 0.035 | 0.6394 ± 0.0044 | 0.462 ± 0.03 | 0.476 ± 0.024 | 0.607 ± 0.02 | 0.509 ± 0.03
8 | LQNCRVSVLLGW | 0.5443 ± 0.0023 | 0.616 ± 0.011 | 0.485 ± 0.019 | 0.6275 ± 0.0042 | 0.229 ± 0.0028 | 0.246 ± 0.036 | 0.4536 ± 0.0025 | 0.367 ± 0.033
9 | LRFYLLTPPSPA | 0.59 ± 0.022 | 0.6288 ± 0.0054 | 0.481 ± 0.024 | 0.631 ± 0.0089 | 0.469 ± 0.017 | 0.494 ± 0.02 | 0.586 ± 0.029 | 0.54 ± 0.061
10 | LRKARLFLKAKC | 0.645 ± 0.031 | 0.678 ± 0.041 | 0.497 ± 0.032 | 0.705 ± 0.0046 | 0.17 ± 0.022 | 0.219 ± 0.017 | 0.384 ± 0.0047 | 0.323 ± 0.03
11 | LRLCMVFAWFLT | 0.388 ± 0.011 | 0.508 ± 0.039 | 0.351 ± 0.029 | 0.493 ± 0.021 | 0.1836 ± 0.00086 | 0.216 ± 0.03 | 0.3924 ± 0.0028 | 0.337 ± 0.023
12 | LRLEFRTNWFLQ | 0.557 ± 0.042 | 0.7363 ± 0.0049 | 0.654 ± 0.015 | 0.752 ± 0.017 | 0.101 ± 0.016 | 0.132 ± 0.0047 | 0.402 ± 0.0072 | 0.2 ± 0.0067
13 | LRVVLVEWMCVV | 0.248 ± 0.017 | 0.295 ± 0.036 | 0.274 ± 0.037 | 0.418 ± 0.0054 | 0.172 ± 0.011 | 0.21 ± 0.023 | 0.358 ± 0.011 | 0.33 ± 0.03
14 | LRVVVGLCMCVL | 0.4743 ± 0.00078 | 0.503 ± 0.007 | 0.396 ± 0.024 | 0.516 ± 0.0088 | 0.385 ± 0.014 | 0.395 ± 0.019 | 0.4884 ± 0.0035 | 0.453 ± 0.015
15 | LSCCIVLLIIFV | 0.245 ± 0.021 | 0.35 ± 0.021 | 0.27 ± 0.026 | 0.39762 ± 0.00019 | 0.253 ± 0.0077 | 0.262 ± 0.029 | 0.341 ± 0.025 | 0.338 ± 0.055
16 | LSFLLLLGCFGS | 0.5966 ± 0.0035 | 0.6236 ± 0.0046 | 0.476 ± 0.019 | 0.59 ± 0.027 | 0.453 ± 0.017 | 0.462 ± 0.014 | 0.589 ± 0.018 | 0.466 ± 0.076
17 | LSGVLFSLIRFY | 0.587 ± 0.06 | 0.636 ± 0.011 | 0.517 ± 0.03 | 0.696 ± 0.008 | 0.274 ± 0.015 | 0.287 ± 0.032 | 0.495 ± 0.015 | 0.383 ± 0.036
18 | LSLWLFRILSVR | 0.4052 ± 0.0027 | 0.451 ± 0.017 | 0.335 ± 0.023 | 0.4987 ± 0.0027 | 0.342 ± 0.0045 | 0.341 ± 0.012 | 0.4906 ± 0.0043 | 0.4439 ± 0.0026
19 | LSPPLRHRLTPP | 0.675 ± 0.014 | 0.729 ± 0.022 | 0.687 ± 0.032 | 0.712 ± 0.029 | 0.67109 ± 0.00013 | 0.669 ± 0.015 | 0.6731 ± 0.0065 | 0.715 ± 0.047
20 | LSVRLYRTVFLV | 0.359 ± 0.044 | 0.603 ± 0.016 | 0.53 ± 0.02 | 0.6697 ± 0.0046 | 0.0603 ± 0.012 | 0.0721 ± 0.0073 | 0.0864 ± 0.023 | 0.148 ± 0.02

Row | Sequence | protein stability index [1, 3] | protein stability index [1, 4] | protein stability index [1, 5] | protein stability index [1, 6] | protein stability index [1, 7] | protein stability index [1, 8] | protein stability index [1, 9] | protein stability index [2]
21 | LSVYGFYKMPAG | 0.501 ± 0.024 | 0.5271 ± 0.0027 | 0.487 ± 0.011 | 0.561 ± 0.018 | 0.521 ± 0.032 | 0.491 ± 0.0073 | 0.5368 ± 0.0015 | 0.502 ± 0.031
22 | LVAGFVFIFFYR | 0.356 ± 0.053 | 0.488 ± 0.021 | 0.339 ± 0.033 | 0.49 ± 0.018 | 0.298 ± 0.0043 | 0.319 ± 0.022 | 0.46 ± 0.0078 | 0.372 ± 0.059
23 | LVCLTPPPSPFS | 0.689 ± 0.021 | 0.799 ± 0.065 | 0.323 ± 0.04 | 0.5136 ± 0.0026 | 0.313 ± 0.009 | 0.332 ± 0.016 | 0.486 ± 0.021 | 0.412 ± 0.033
24 | LVDPFAALRHVV | 0.624 ± 0.026 | 0.768 ± 0.0078 | 0.709 ± 0.016 | 0.71 ± 0.013 | 0.15 ± 0.014 | 0.173 ± 0.024 | 0.3825 ± 0.0015 | 0.246 ± 0.0088
25 | LVGWSWRGWFVV | 0.512 ± 0.029 | 0.6899 ± 0.0065 | 0.6201 ± 0.0015 | 0.769 ± 0.015 | 0.0763 ± 0.011 | 0.094 ± 0.029 | 0.112 ± 0.012 | 0.139 ± 0.025
26 | LVIFSLLFSFSH | 0.22 ± 0.011 | 0.325 ± 0.047 | 0.212 ± 0.032 | 0.394 ± 0.018 | 0.194 ± 0.0075 | 0.232 ± 0.015 | 0.3837 ± 0.00069 | 0.32 ± 0.028
27 | LVLVVFCPLWFW | 0.483 ± 0.035 | 0.581 ± 0.024 | 0.401 ± 0.037 | 0.5794 ± 0.0036 | 0.4422 ± 0.00092 | 0.388 ± 0.0094 | 0.56 ± 0.024 | 0.43567 ± 0.00031
28 | LVPLSLLLCFFV | 0.515 ± 0.027 | 0.5647 ± 0.0036 | 0.411 ± 0.028 | 0.551 ± 0.0063 | 0.178 ± 0.0019 | 0.205 ± 0.015 | 0.354 ± 0.0088 | 0.3058 ± 0.0028
29 | LWAPFWVSRVTA | 0.481 ± 0.017 | 0.513 ± 0.0085 | 0.408 ± 0.035 | 0.5677 ± 0.0039 | 0.21 ± 0.004 | 0.247 ± 0.026 | 0.42 ± 0.0086 | 0.347 ± 0.012
30 | LWGLVWGGVWGV | 0.683 ± 0.039 | 0.722 ± 0.013 | 0.564 ± 0.014 | 0.729 ± 0.012 | 0.5683 ± 0.0018 | 0.573 ± 0.015 | 0.705 ± 0.0096 | 0.439 ± 0.015
31 | LYRIETLFMRAQ | 0.353 ± 0.029 | 0.41 ± 0.022 | 0.435 ± 0.035 | 0.407 ± 0.035 | 0.389 ± 0.059 | 0.358 ± 0.019 | 0.354 ± 0.019 | 0.383 ± 0.021
32 | LYVQSVCFSVPR | 0.463 ± 0.024 | 0.537 ± 0.017 | 0.445 ± 0.021 | 0.5091 ± 0.002 | 0.497 ± 0.052 | 0.431 ± 0.012 | 0.486 ± 0.0089 | 0.422 ± 0.012
33 | MALAVRVVLCGA | 0.0507 ± 0.0085 | 0.0673 ± 0.038 | 0.165 ± 0.026 | 0.192 ± 0.0025 | 0.116 ± 0.029 | 0.153 ± 0.0088 | 0.168 ± 0.0051 | 0.236 ± 0.034
34 | MALAVRVVRCGA | 0.406 ± 0.0042 | 0.422 ± 0.018 | 0.302 ± 0.025 | 0.4769 ± 0.0017 | 0.227 ± 0.043 | 0.233 ± 0.038 | 0.379 ± 0.033 | 0.353 ± 0.024
35 | MGVTVRVEGIRA | 0.52 ± 0.036 | 0.517 ± 0.013 | 0.368 ± 0.03 | 0.55332 ± 0.0004 | 0.3374 ± 0.00071 | 0.383 ± 0.013 | 0.537 ± 0.015 | 0.369 ± 0.084
36 | MLIAISASAARF | 0.452 ± 0.037 | 0.5819 ± 0.0017 | 0.417 ± 0.027 | 0.501 ± 0.016 | 0.45 ± 0.02 | 0.44 ± 0.034 | 0.498 ± 0.0095 | 0.4184 ± 0.00049
37 | MLLFVSCCVFLF | 0.134 ± 0.021 | 0.185 ± 0.011 | 0.202 ± 0.038 | 0.292 ± 0.0093 | 0.157 ± 0.0093 | 0.169 ± 0.032 | 0.219 ± 0.019 | 0.206 ± 0.063
38 | MMYTLSMLLRLR | 0.43 ± 0.014 | 0.5 ± 0.0093 | 0.506 ± 0.016 | 0.528 ± 0.015 | 0.64799 ± 0.00045 | 0.52 ± 0.02 | 0.546 ± 0.0085 | 0.513 ± 0.047
39 | MPQSLKKMVFLA | 0.431 ± 0.057 | 0.628 ± 0.022 | 0.61 ± 0.032 | 0.6621 ± 0.005 | 0.0709 ± 0.025 | 0.0847 ± 0.0032 | 0.0875 ± 0.024 | 0.1516 ± 0.0014
